According to patent WO2019109974A1 (dated 2019):

Experiments:
[1] = molecular target: T1, PD-L1 on U2OS cells stably expressing PD-L1 (UniProt Q9NZQ7 19-290, limits assumed); assay: flow cytometry on PD-L1-U2OS cells, competitor biotin PD-1 protein, MFI
T1 construct: whole, on cells; also called PD-L1-U2OS; U2OS PD-L1细胞

[2] = molecular target: PD-L1抗原 (PD-L1 antigen coated in detection method 1.2) (human, UniProt Q9NZQ7 19-238, limits assumed); assay: competition ELISA: PD-L1 antigen coated, competitor biotin PD-1-mFc
Chain of PD-L1抗原 (PD-L1 antigen coated in detection method 1.2) (Q9NZQ7 19-238 limits assumed): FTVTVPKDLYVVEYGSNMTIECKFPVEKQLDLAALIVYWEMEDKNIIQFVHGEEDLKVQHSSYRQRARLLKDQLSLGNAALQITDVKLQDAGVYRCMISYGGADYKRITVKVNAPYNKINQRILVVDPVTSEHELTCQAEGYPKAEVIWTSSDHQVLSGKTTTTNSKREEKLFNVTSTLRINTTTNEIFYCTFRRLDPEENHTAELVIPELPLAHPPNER

hPD-L1(ECD)-mFc = molecular target: T2, hPD-L1(ECD)-mFc (human); assay: ELISA, hPD-L1-mFc coated
T2 construct: Human PD-L1 extracellular domain fused to a mouse antibody heavy chain Fc tag; also called hPD-L1-mFc; PD-L1-mFc
T2 sequence (chain, as listed by the source limits assumed): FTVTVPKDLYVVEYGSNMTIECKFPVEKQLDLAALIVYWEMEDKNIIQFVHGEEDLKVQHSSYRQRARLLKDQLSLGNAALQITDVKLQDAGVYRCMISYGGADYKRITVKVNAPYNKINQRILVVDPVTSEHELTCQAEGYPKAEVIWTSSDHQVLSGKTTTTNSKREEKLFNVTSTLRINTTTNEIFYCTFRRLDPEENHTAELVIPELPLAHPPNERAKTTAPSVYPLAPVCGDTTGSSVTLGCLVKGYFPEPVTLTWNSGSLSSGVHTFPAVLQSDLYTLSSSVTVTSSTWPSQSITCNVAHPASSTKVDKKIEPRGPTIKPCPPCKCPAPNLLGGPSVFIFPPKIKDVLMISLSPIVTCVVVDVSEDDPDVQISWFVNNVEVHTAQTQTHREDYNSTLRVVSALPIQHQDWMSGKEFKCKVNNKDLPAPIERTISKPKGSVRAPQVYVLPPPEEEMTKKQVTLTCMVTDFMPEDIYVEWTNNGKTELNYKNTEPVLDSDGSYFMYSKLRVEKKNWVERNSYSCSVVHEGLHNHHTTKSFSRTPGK

[3] = molecular target: T3, 人PD-L1抗原 (hPD-L1-his, Sino biological 10084-H08H-200) (human, UniProt Q9NZQ7 19-239); assay: SPR (Biacore T200), antibody captured by anti-human antibody on CM5, PD-L1-his as analyte, 1:1 Langmuir fit
T3 construct: Bought analyte of the Biacore assay; also called human PD-L1 antigen
T3 sequence (Q9NZQ7 19-239 limits assumed): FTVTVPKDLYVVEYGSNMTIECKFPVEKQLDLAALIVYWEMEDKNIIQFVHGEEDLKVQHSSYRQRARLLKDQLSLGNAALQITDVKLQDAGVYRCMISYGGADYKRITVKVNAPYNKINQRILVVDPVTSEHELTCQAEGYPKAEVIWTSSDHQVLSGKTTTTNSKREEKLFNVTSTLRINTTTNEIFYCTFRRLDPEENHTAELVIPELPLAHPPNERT

T1 sequence (Q9NZQ7 19-290 limits assumed): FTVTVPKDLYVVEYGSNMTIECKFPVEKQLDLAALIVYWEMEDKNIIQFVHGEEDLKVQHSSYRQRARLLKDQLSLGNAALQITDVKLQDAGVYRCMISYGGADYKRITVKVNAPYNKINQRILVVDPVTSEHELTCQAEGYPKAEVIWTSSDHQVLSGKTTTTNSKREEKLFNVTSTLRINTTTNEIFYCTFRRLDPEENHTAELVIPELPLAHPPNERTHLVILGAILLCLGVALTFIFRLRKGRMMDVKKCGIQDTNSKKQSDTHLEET

IC50 [1] [µg/mL]	IC50 [2] [µg/mL]	EC50 (hPD-L1(ECD)-mFc) [µg/mL]	Kd [3] [nM]	Binder
2.17	1.44			嵌合抗体Chi2-2 chimeric antibody Chi2-2 (antibody, human IgG1, kappa, V domains shown, Mouse variable regions joined to human IgG1 and human kappa constant regions) VH: QVQLQQPGAELVRPGASVNLSCKTSGYSFTSYWMNWVKQRPGQGLEWIGMIHPSDSETWLNQKFKDKATLTVDKSSSTVHMQLSSPTSEDSAVFYCVRSMVWTRHVMDYWGQGTSVTVSS VL: not shown
0.195	0.514	0.107	0.674	嵌合抗体1(Chi1) chimeric antibody 1 (antibody, human IgG1, kappa, V domains shown, expressed in ExpiCHO; also called 母本嵌合抗体) VH: EVQLQESGPGLAKPSQTLSLTCSVTGYSITSDYWNWIRRFPGNKLEYMGYISYTGSTYYNPSLKSRISITRDTSKNQYYLQLKSVTTEDTATYYCARGEAWDRRTLDCWGQGTSVTVSS VL: DFQMTQTTSSLSASLGDRVTISCRASQDITNYLNWYQQKPDGTVKLLIYYTSRLHSGVPSRFSGSGSGSDYALTISNLEQEDIATYFCQQVYTLPWTFGRGTKLEIKR

Continued, binder first:

Binder	IC50 [1] [µg/mL]	IC50 [2] [µg/mL]	EC50 (hPD-L1(ECD)-mFc) [µg/mL]	Kd [3] [nM]
hu-Chi1-3.4 (antibody, human IgG1, kappa, V domains shown, also called Chi1_VH.1D / Chi1_VL.1C) VH: QVQLQESGPGLVKPSQTLSLTCTVSGYSITSDYWNWIRQHPGKGLEYIGYISYTGSTYYNPSLKSRVTISRDTSKNQFSLKLSSVTAADTAVYYCARGEAWDRRTLDYWGQGTLVTVSS VL: DFQMTQSPSSLSASVGDRVTITCRASQDITNYLNWYQQKPDKAVKLLIYYTSRLHSGVPSRFSGSGSGTDFTLTISSLQPEDFATYYCQQVYTLPWTFGQGTKLEIKR				0.799
嵌合抗体2-1(Chi2-1) chimeric antibody 2-1 (antibody, human IgG1, kappa, V domains shown, Mouse variable regions joined to human IgG1 and human kappa constant regions) VH: QVQLQQPGAELVRPGASVKLSCKASGYSFTFYWMNWVKQRPGQGLEWIGMIHPSDSETRLNQKFKDKATLTVDKSSSTAYMQLSSPTSEDTAVYYCVRNMVWSRQVMDYWGQGTSVTVSS VL: DVVMTQTPLTLSVTIGQPASISCKSSQSLLDSDGNTYLNWLLQRPGESPKLLLYLVSKLDSGVPDRFTGSGSGTDFTLKIGRVEAADLGVYYCLQSTHFPYTFGGGTKLEIKR	0.248	0.462	0.145	
